Results from patent US20140056903A1 (Regeneron, published 2014).

T1: human GFRα3 on HEK293/hGFRα3/hRET/SRE-luc cells (human, UniProt O60609 32-382)
T1 sequence: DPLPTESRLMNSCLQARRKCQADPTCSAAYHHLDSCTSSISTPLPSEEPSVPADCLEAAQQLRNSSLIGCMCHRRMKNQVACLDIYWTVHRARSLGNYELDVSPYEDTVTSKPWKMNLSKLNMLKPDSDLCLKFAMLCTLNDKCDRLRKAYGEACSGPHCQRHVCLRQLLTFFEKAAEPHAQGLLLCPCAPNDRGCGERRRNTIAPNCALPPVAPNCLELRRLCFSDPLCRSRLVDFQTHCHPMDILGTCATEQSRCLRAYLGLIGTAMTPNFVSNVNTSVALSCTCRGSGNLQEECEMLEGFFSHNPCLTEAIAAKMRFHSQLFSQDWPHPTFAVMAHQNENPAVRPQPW

T2: cynomolgus GFRα3 on HEK293/MfGFRα3/MfRet/SRE-Luc cells (cynomolgus, UniProt O60609 1-400 (human entry), limits assumed)
T2 chain: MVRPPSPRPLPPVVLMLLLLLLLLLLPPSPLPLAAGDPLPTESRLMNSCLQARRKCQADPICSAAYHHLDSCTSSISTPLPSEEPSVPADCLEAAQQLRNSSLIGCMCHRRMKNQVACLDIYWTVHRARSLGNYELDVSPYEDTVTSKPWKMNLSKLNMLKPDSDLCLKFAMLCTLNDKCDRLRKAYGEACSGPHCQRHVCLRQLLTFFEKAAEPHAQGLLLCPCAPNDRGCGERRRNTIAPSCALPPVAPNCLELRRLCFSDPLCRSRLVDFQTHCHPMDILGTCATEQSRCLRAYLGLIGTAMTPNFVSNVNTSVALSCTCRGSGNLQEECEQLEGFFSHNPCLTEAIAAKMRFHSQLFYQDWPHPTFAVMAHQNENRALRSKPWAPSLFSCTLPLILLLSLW

B1: H4H2234N (antibody, human IgG4, V domains shown)
VH: EVQLLESGGGLVQSGGSLRLSCAASGFSFNNYAMSWVRQAPGKGLEWVSFISGSGGSTYYADSVKGRFTISRDNSKNTLYLQMNSLRVEDTAVFYCAKDRYNYGTFFDYWGQGTLVTVSS
VL: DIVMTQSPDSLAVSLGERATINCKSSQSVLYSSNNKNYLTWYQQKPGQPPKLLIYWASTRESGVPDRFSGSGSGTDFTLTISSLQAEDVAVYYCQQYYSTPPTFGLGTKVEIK
notes: human IgG4 Fc (H4H)
B2: H4H2207N (antibody, human IgG4, V domains shown)
VH: EVQLVESGGGLVQPGRSLRLSCAASGFTFNDYAMHWVRQAPGKGLEWVSGISWNSGNIGYADSVKGRFTISRDNAKNSLYLQMNSLRAEDTALYFCARDTRMATRPFDYWGQGTLVTVSS
VL: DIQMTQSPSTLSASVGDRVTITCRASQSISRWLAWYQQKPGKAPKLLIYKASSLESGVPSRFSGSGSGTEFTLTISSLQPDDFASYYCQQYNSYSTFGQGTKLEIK
notes: human IgG4 Fc (H4H)
B3: H4H2210N (antibody, human IgG4, V domains shown)
VH: EVQLLESGGGLVQPGGSLRVSCAASGFTFSTSAMSWVRQAPGKGLEWVSGISGIGGGSTYYADSVKGRFTISRDNSKNTLYLQMNSLRAEDTAVYFCAKFYKWNSYIFDLWGQGTMVTVSS
VL: EIVLTQSPDTLSLSPGERATLSCRASQSVSSSYFAWYQQKPGQAPRLLMYSASSRATGIPDRFSGSGSGTDFSLTISRLEPEDFAVYYCQQYGRSLTFGGGTKVEIK
B4: recombinant human ARTEMIN protein with a C-terminal myc-myc-hexahistidine tag (ligand)
chain: AGGPGSRARAAGARGCRLRSQLVPVRALGLGHRSDELVRFRFCSGSCRRARSPHDLSLASLLGAGALRPPPGSRPVSQPCCRPTRYEAVSFMDVNSTWRTVDRLSATACGCLGEQKLISEEDLGGEQKLISEEDLHHHHHH

What was measured:
[1] = target: T1, human GFRα3 on …; test: cell-based or functional assay
[2] = target: T3, human GFRα3 expressed with a C-terminal hFc tag (human); test: blocking ELISA 1, hGFRα3-hFc to coated hARTEMIN-mmH
T3 construct: also called hGFRα3-hFc
Experimental: (§1) A constant amount of human GFRα3 fused with a C-terminal human Fc tag (hGFRα3-hFc; SEQ ID:371) at 120 pM was pre-mixed with varying amounts of antibodies, ranging from 0 to ˜10 nM in serial dilutions, followed by an 1 hour incubation at room temperature (RT) to allow antibody-hGFRα3-hFc binding to reach equilibrium. The equilibrated sample solutions were then transferred to the hARTEMIN-mmH-coated plate. […] Absorbance was recorded at 450 nm on a Victor X5 plate reader (Perkin Elmer) to determine the amount of free hGFRα3-hFc in the pre-equilibrated hGFRα3-hFc-antibody solutions that was able to bind to the plate coated with hARTEMIN-mmH. IC₅₀ values, defined as the concentration of antibody required to reduce the signal from a constant concentration of hGFRα3-hFc by 50%, were calculated from the data using Prism software from GraphPad. The absorbance measured at the constant amount of 120 pM hGFRα3-hFc in the absence of anti-GFRα3 antibody is defined as 0% blocking and the absorbance with no added hGFRα3-hFc is defined as 100% blocking. The observed absorbance in the wells containing the highest antibody concentration was used to calculate the maximum blocking percent shown in the table.

[3] = target: T4, human GFRα3 expressed with a C-terminal myc-myc-hexahistidine tag (human, UniProt O60609 32-374, biotinylated (sites not given) in ELISA format 2 and in the Octet cross-competition; not in SPR); test: blocking ELISA 2, biotin-hGFRα3-mmH to coated hARTEMIN-mmH + hRET-10His
T4 construct: also called hGFRα3-mmh; hGFRα3-mmH
Experimental: as §1, with “The” for “A constant amount of human GFRα3 fused with a C-terminal human Fc tag (hGFRα3-hFc; SEQ ID:371) at 120 pM was pre-mixed with varying amounts of antibodies, ranging from 0 to ˜10 nM in serial dilutions, followed by an 1 hour incubation at room temperature (RT) to allow antibody-hGFRα3-hFc binding to reach equilibrium. The”
In the second ELISA format, the plates, samples and data were processed similarly as for the first format except both hARTEMIN-mmH and human RET with a C-terminal 10 histidine tag (hRET-10His; R&D Systems, #1168-CR/CF) were coated for the blocking ELISA experiment. The 96-well microtiter plates were coated with a mixture of 1.2 ug/ml hARTEMIN-mmH and 6.9 ug/ml hRET-10His proteins in PBS overnight at 4° C. and then blocked with a solution of 0.5% (w/v) BSA. A constant amount of biotinylated human GFRα3 with a C-terminal myc-myc-hexahistidine tag (biotin-hGFRα3-mmH; SEQ ID:370) at 1 nM was pre-mixed with varied amounts of anti-GFRα3 antibodies, ranging from 0 to ˜100 nM in serial dilutions, followed by a 1 hour incubation at RT to allow antibody-biotin-hGFRα3-mmH binding to reach equilibrium. The equilibrated samples were then transferred to the coated plate. After 1 hour of binding, the plate was washed, then the bound biotin-hGFRα3-mmH was detected using HRP conjugated streptavidin (Pierce, #N200), and colorimetric signals were developed using TMB HRP substrates.

[4] = target: T2, cynomolgus GFRα3 on …; test: cell-based or functional assay

Binder	IC50 (SRE-luc, HEK293/hGFRα3/hRET cells, 100 pM hARTEMIN-mmH) [1] [nM]	% max blocking [2] [%]	IC50 [2] [nM]	% max blocking [3] [%]	IC50 [3] [nM]	EC50 of SRE-dependent luciferase activity in HEK293/mfGFRα3/mfRet/SRE-LUC cells [4] [nM]
B1	2.3	70	0.0829	97	3.42	–
B2	2.4	–	–	85	7.3	–
B3	2.9	–	–	–	–	–
B4	–	–	–	–	–	0.07
